Results reported in patent publication US11571459B2, “Methods for treating cancer using PS-targeting antibodies with immuno-oncology agents” (ONCXERNA THERAPEUTICS, INC., priority 2017, dated 2023).
Read-outs that look alike come from different tables or passages of the source.

Experiments:
HCV (genotype 1) = assay: Phase II study of bavituximab with ribavirin in chronic HCV (genotype 1); settings: for patients with early virological response (EVR): Week 12
[1] = tested on: previously treated non-squamous NSCLC
Experimental: The primary objective of this study was to compare the ORR (CR+PR) among the treatment arms. Secondary objectives included comparing PFS, DR, OS, safety and PK.
Additional blood draws were performed for these patients during Cycles 1 and 2 at specified time points.
Samples from the NSCLC Phase II trial of Example IX (PPHM 0902) were tested using the functional β2GPI assay of Example XII.

HCV and HIV = assay: Phase Ib repeat-dose study in patients co-infected with chronic HCV and HIV; type: in vivo, human
Experimental: The primary objectives were to determine the safety, tolerability, PK profile, viral kinetics, MTD and/or MED. The study involved 16 scheduled visits over approximately 16 weeks. […] Dose escalation proceeded after all patients in the cohort had completed the first 4 weeks of dosing with no thrombotic events classified as serious adverse events (SAEs).
The median baseline HCV viral load was 6.76 log10 and the median baseline for HIV was 3.99 log10. Plasma viral loads of HCV and HIV were measured at specific time points during the study.

[2] = in vivo
Experimental: (§1) Samples were collected from patients in the 0.1 and 0.3 mg/kg dose cohorts before the study, on days 0, 1, 2, 4, 7, 10, 14, and every 7 days from days 21 to 70. Samples were collected from patients in the 1 and 3 mg/kg dose cohorts before the study, on days 0, 1, 2, 4, 7, 14, 21, 22, 23, 25, and every 7 days from days 28 to 56.

[3] = Phase I dose escalation study of bavituximab monotherapy in refractory advanced solid tumors: PK, safety; settings: for AUCinf / Cmax / t1/2 / CL: Mean (CV %)
Experimental: as §1

[4] = Phase Ib study of bavituximab with gemcitabine, paclitaxel plus carboplatin or docetaxel: PK; type: in vivo, human; settings: 3 mg/kg weekly with gemcitabine
[5] = tested on: previously untreated stage IV pancreatic cancer; assay: Phase II (PPHM 1002) gemcitabine with or without bavituximab; type: in vivo, human; settings: with gemcitabine
Experimental: The primary objective was to compare the OS of patients among the treatment arms. Secondary objectives included comparing PFS, ORR, DR and safety.
Gemcitabine (1000 mg/m^2) was given on days 1, 8, and 15 of each 28-day cycle (4 weeks) until disease progression or unacceptable toxicities. A total of 70 patients were enrolled to the study. In general, the patient population had very extensive disease burden, which may have reduced the response in both arms.
The levels of pre-treatment functional β2GPI ranged from 82.5 to 343.2 μg/ml for all patients. For these 31 patients, the mean level of pre-treatment functional β2GPI (219.2 μg/ml) was consistent with the average reported in the literature.

tumors = assay: Syngeneic and xenogeneic tumor models; type: in vivo, mice; settings: wide range of studies
Experimental: The 3G4 antibody was purified to apparent homogeneity from the supernatant of the cultured hybridoma using a standard Protein A procedure.
In early studies in mice, it was calculated that molar ratios of β2GPI to antibody of between 0.12 and 0.25 were effective for anti-tumor activity, thus showing that high levels of β2GPI are not necessary for anti-tumor activity.

[6] = tested on: locally advanced or metastatic breast cancer; assay: Phase II bavituximab plus paclitaxel and carboplatin in breast cancer; settings: with paclitaxel and carboplatin
Excerpt: This Phase II study utilized a Simon 2-stage design. […] The primary objective was to determine the overall response rate (ORR), defined as complete response (CR) plus partial response (PR), CR+PR. Secondary objectives included time to tumor progression, duration of response (DOR or DR), overall survival (OS) and safety.

[7] = ITT, all with docetaxel, Bavituximab arm 3 mg/kg

In the case of bavituximab, the “patients with early virological response (EVR)” value (HCV (genotype 1); 0.3 mg/kg weekly with ribavirin) was 18%, the “patients with early virological response (EVR)” value (HCV (genotype 1); 3 mg/kg weekly with ribavirin) was 9% and the “safety profile / patients reporting AEs” value (HCV (genotype 1); all with ribavirin) was “more favorable safety profile”. The viral reduction (HCV (genotype 1); plus ribavirin, 12 weeks) was “gradual viral reduction over 12 weeks was seen in some patients”, the “ORR greater than combined group by” value ([1]; 3 mg/kg) was “approximately 50%” and the “median OS longer than combined group by” value ([1]; 3 mg/kg) was “approximately 60%”. For the same substance, the Deaths [1, 7] was 53.7%, the “Number of Deaths” value [1, 7] was 22 and the “Overall Response Rate (CR + PR)” value ([1]; ITT, central review, all with docetaxel, Bavituximab arm 3 mg/kg) was 17.1%. For the same substance, the pharmacokinetic drug-drug interaction ([1]; PK sub-study, 6 patients per arm, cycles 1 and 2) was “No clinically relevant pharmacokinetic drug-drug interaction was observed”, the mOS ([1]; functional β2GPI less than 200 μg/mL, bavituximab 3 mg/kg with docetaxel) was 9.4 months and the mOS ([1]; functional β2GPI ≥200 μg/mL, bavituximab 3 mg/kg, all with docetaxel) was 16.8 months. The “accumulation / time-dependent PK differences” value (HCV and HIV; 0.3 to 6 mg/kg once weekly for 8 weeks) was “did not exhibit time-dependent PK differences or accumulation”, the “maximum reduction in HCV and/or HIV viral load from baseline” value (HCV and HIV; several patients in each treatment group, all dose levels) was at least 0.5 log10 and the “accumulation following multiple-dose administration” value [2] was “did not exhibit appreciable accumulation or time-dependent PK differences”. The tolerability [2] was “well tolerated at doses ranging up to 3 mg/kg weekly”, the PK linearity ([3]; 0.1 to 3 mg/kg) was “linear single-dose (day 0) and multiple-dose (days 21 or 42) PK characteristics” and the maximum tolerated dose ([3]; 0.1 to 3 mg/kg weekly) was “No maximum tolerated dose was reached”. For the same substance, the AUCinf ([3]; Day 0, 0.1 mg/kg, N=8) was 113 (50.1) d μg/mL, the Cmax ([3]; Day 0, 0.1 mg/kg, N=8) was 2.11 (27.3) μg/mL and the t1/2 ([3]; Day 0, 0.1 mg/kg, N=8) was 43.9 (48.5) h. For the same substance, the AUCinf ([3]; Day 0, 0.3 mg/kg, N=6) was 241 (39.8) d μg/mL, the Cmax ([3]; Day 0, 0.3 mg/kg, N=6) was 5.13 (42.4) μg/mL and the t1/2 ([3]; Day 0, 0.3 mg/kg, N=6) was 39.8 (34.1) h. For the same substance, the AUCinf ([3]; Day 0, 1.0 mg/kg, N=6) was 966 (30.0) d μg/mL, the Cmax ([3]; Day 0, 1.0 mg/kg, N=6) was 16.6 (30.9) μg/mL and the t1/2 ([3]; Day 0, 1.0 mg/kg, N=6) was 40.3 (20.2) h. The AUCinf ([3]; Day 0, 3.0 mg/kg, N=6) was 3,017 (50.3) d μg/mL, the Cmax ([3]; Day 0, 3.0 mg/kg, N=6) was 56.4 µg/mL and the t1/2 ([3]; Day 0, 3.0 mg/kg, N=6) was 37.2 (34.5) h. For the same substance, the AUCinf ([3]; Day 21, 1.0 mg/kg weekly, N=6) was 1,053 (38.0) d μg/mL, the CL ([3]; Day 21, 1.0 mg/kg weekly, N=6) was 1.12 (52.1) mL/kg/d and the Cmax ([3]; Day 21, 1.0 mg/kg weekly, N=6) was 18.7 (31.8) μg/mL. The t1/2 ([3]; Day 21, 1.0 mg/kg weekly, N=6) was 46.8 (38.4) h, the AUCinf ([3]; Day 21, 3.0 mg/kg weekly, N=4) was 2,672 (63.4) d μg/mL and the CL ([3]; Day 21, 3.0 mg/kg weekly, N=4) was 1.51 (61.4) mL/kg/d. For the same substance, the Cmax ([3]; Day 21, 3.0 mg/kg weekly, N=4) was 59.6 (27.6) μg/mL, the t1/2 ([3]; Day 21, 3.0 mg/kg weekly, N=4) was 46.0 (44.4) h and the “time concentration remained above 2 μg/mL” value ([3]; dose of 1 mg/kg) was 6 days. For the same substance, the “time concentration remained above 2 μg/mL” value ([3]; dose of 3 mg/kg) was 7 days, the “accumulation (Cmax and AUC)” value [4] was “no accumulation of bavituximab following multiple-dose administration” and the mOS ([5]; functional β2GPI less than 200 μg/mL) was 5.3 months. The mOS ([5]; functional β2GPI ≥200 μg/mL) was 7.4 months, the “in vivo localization and effects” value (tumors) was “localize to tumor vascular endothelium and to exert anti-tumor effects and anti-viral effects” and the “median PFS” value [6] was 6.9 months. The “median duration of response (DOR)” value [6] was 3.7 months, the CR ([6]; 46 patients) was 10.9% and the “Grade 3 anemia” value ([6]; 46 patients) was 10.9%. For the same substance, the “Grade 3 leukopenia” value ([6]; 46 patients) was 23.9%, the “Grade 3 neutropenia” value ([6]; 46 patients) was 19.6% and the “Grade 4 neutropenia” value ([6]; 46 patients) was 26.1%. For the same substance, the PR ([6]; 46 patients) was 63.0%, the “objective response per RECIST” value ([6]; 46 patients) was 73.9% and the “median OS” value ([6]; at study closure) was 23.2 months.
